According to IntAct's records for PubMed 30518913:

B1: UbiA prenyltransferase domain-containing protein 1 (Homo sapiens), Q9Y5Z9 (parent)
chain: MAASQVLGEKINILSGETVKAGDRDPLGNDCPEQDRLPQRSWRQKCASYVLALRPWSFSASLTPVALGSALAYRSHGVLDPRLLVGCAVAVLAVHGAGNLVNTYYDFSKGIDHKKSDDRTLVDRILEPQDVVRFGVFLYTLGCVCAACLYYLSPLKLEHLALIYFGGLSGSFLYTGGIGFKYVALGDLIILITFGPLAVMFAYAIQVGSLAIFPLVYAIPLALSTEAILHSNNTRDMESDREAGIVTLAILIGPTFSYILYNTLLFLPYLVFSILATHCTISLALPLLTIPMAFSLERQFRSQAFNKLPQRTAKLNLLLGLFYVFGIILAPAGSLPKI

Variants of: B1
Details: with rash_human HRAS

effect of a mutation on the interaction | Variant
disrupting interaction | R54A;P55A;W56A;S57A
disrupting interaction | N102S
